Reference: IntAct's records for PubMed 17974954

B1: Tyrosine-protein phosphatase non-receptor type 1 (Homo sapiens), P18031 (parent)
chain: MEMEKEFEQIDKSGSWAAIYQDIRHEASDFPCRVAKLPKNKNRNRYRDVSPFDHSRIKLHQEDNDYINASLIKMEEAQRSYILTQGPLPNTCGHFWEMVWEQKSRGVVMLNRVMEKGSLKCAQYWPQKEEKEMIFEDTNLKLTLISEDIKSYYTVRQLELENLTTQETREILHFHYTTWPDFGVPESPASFLNFLFKVRESGSLSPEHGPVVVHCSAGIGRSGTFCLADTCLLLMDKRKDPSSVDIKKVLLEMRKFRMGLIQTADQLRFSYLAVIEGAKFIMGDSSVQDQWKELSHEDLEPPPEHIPPPPRPPKRILEPHNGKCREFFPNHQWVKEETQEDKDCPIKEEKGSPLNAAPYGIESMSQDTEVRSRVVGGSLRGAQAASPAKGEPSLPEKDEDHALSYWKPFLVNMCVATVLTAGAYLCYRFLFNSNT

Variants of: B1
Conditions: with src_human SRC

| effect of a mutation on the interaction | Variant |
| --- | --- |
| disrupting interaction | MEMEKEFEQIDKSGSWAAIYQDIRHEASDFPCRVAKLPKNKNRNRYRDVSPFDHSRIKLHQEDNDYINASLIKMEEAQRSYILTQGPLPNTCGHFWEMVWEQKSRGVVMLNRVMEKGSLKCAQYWPQKEEKEMIFEDTNLKLTLISEDIKSYYTVRQLELENLTTQETREILHFHYTTWPDFGVPESPASFLNFLFKVRESGSLSPEHGPVVVHSSAGIGRSGTFCLADTCLLLMDKRKDPSSVDIKKVLLEMRKFRMGLIQTADQLRFSYLAVIEGAKFIMGDSSVQDQWKELSHEDLEPPPEHIPPPPRPPKRILEPHNGKCREFFPNHQWVKEETQEDKDCPIKEEKGSPLNAAPYGIESMSQDTEVRSRVVGGSLRGAQAASPAKGEPSLPEKDEDHALSYWKPFLVNMCVATVLTAGAYLCYRFLFNSNT [C215S] |
